For the data set the following is noted: Rattus norvegicus; pH 7; 25 °C; Urea; Fluorescence; NaPO4 25 mM; NaCl 75 mM; whole UniProt chain shown.

Values joined by “and” are separate entries in the source; they are usually repeats but may differ in a detail not shown here. Equal entries are not always repeated.

B1: Fatty acid-binding protein, intestinal wild type, P02693 (protein)
chain: MAFDGTWKVDRNENYEKFMEKMGINVVKRKLGAHDNLKLTITQEGNKFTVKESSNFRNIDVVFELGVDFAYSLADGTELTGTWTMEGNKLVGKFKRVDNGKELIAVREISGNELIQTYTYEGVEAKRIFKKE
Turning to B1, the denaturant m value is 0.83 kcal/mol/M and 0.74 kcal/mol/M; the “denaturant midpoint (higher = more stable)” value is 4.61 M and 4.77 M; the unfolding free energy was 3.82 kcal/mol and 3.54 kcal/mol.

The values are drawn from FireProtDB (doi:10.1021/bi052091o).
